Patent US20230051715A1 (MABWELL THERAPEUTICS, published 2023)
Positions count from the first letter of the chain named. Numbers in names are those of the source. Each block holds one binder with its values, some of them ahead of it.

Assays:
[1] = target: T1, human C1s mutant M1 (M277I) (human, UniProt P09871 16-688); assay: ELISA, plate coated with human C1s mutant M1: M277I, OD450nm
T1 construct: The entry is the mutant itself
T1 sequence: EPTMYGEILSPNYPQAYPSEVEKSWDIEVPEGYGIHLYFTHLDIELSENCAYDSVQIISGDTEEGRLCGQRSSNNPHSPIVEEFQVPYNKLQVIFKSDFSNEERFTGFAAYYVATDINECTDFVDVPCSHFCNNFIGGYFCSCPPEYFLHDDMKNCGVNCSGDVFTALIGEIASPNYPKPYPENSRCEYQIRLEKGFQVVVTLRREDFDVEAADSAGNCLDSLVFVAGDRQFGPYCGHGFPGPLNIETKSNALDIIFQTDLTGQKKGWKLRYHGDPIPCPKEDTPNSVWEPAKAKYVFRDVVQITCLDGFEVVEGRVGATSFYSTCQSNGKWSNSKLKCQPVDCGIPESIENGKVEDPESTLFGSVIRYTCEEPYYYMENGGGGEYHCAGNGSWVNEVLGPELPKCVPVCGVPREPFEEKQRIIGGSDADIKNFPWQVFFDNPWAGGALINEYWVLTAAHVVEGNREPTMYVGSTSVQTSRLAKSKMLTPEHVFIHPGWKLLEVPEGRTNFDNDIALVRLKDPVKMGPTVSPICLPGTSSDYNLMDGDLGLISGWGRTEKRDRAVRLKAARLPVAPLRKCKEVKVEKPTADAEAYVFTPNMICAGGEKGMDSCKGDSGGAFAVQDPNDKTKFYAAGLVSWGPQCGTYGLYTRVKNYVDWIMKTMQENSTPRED
Protocol: (§1) ELISA was carried out by first coating 96-well plates with 200 ng/well of full-length or truncated C1s proteins overnight. The next morning, plates were blocked with SuperBlock T20 blocking buffer (Thermo Scientific 37536) for 1 h with gentle shaking. Then, various concentrations of anti-C1s antibodies diluted in SuperBlock T20 blocking buffer were added to the plates and incubated for 1 h with gentle shaking. Mouse IgG (Sigma-Aldrich 15381) and human IgG1 (BioXCell BP0297) were used as negative controls. The plates were washed before incubating with HRP conjugated secondary antibodies diluted in SuperBlock T20 blocking buffer (goat anti-mouse IgG (H+L) cross-adsorbed secondary antibody HRP (Invitrogen G-21040) or goat anti-human IgG antibody, HRP conjugate (Millipore AP309P)) for 1 h with gentle shaking. At last, the plates were washed and color developed with ELISA liquid HRP substrate (Sigma-Aldrich), followed by stopping the reaction with addition of 1M H₂SO₄ in the same volume as the ELISA liquid substrate. Bound antibody was measured by absorbance at OD₄₅₀ₙₘ.
(§2) Binding of anti-C1s antibodies to mutants M1-M20 of human C1s was measured by ELISA as described in Example 4, and results are shown in FIGS. 6B-6U. All anti-C1s humanized variants including hz2-7(H1L2), hz2-8(H1L2 G80A) and hz2-8(H1L2 G80A/T82A) maintained strong binding properties to the majority (16 out of 20) of C1s mutants including M1 (FIG. 6B), M2 (FIG. 6C), M3 (FIG. 6D). M4 (FIG. 6E), M7 (FIG. 6H), M8 (FIG. 6I), M10 (FIG. 6K), M11 (FIG. 6L), M12 (FIG. 6M), M13 (FIG. 6N), M15 (FIG. 6P), M16 (FIG. 6Q), M17 (FIG. 6R), M18 (FIG. 6S), M19 (FIG. 6T) and M20 (FIG. 6U).

[2] = target: T2, human C1s mutant M17 (N380H) (human, UniProt P09871 16-688); assay: ELISA, plate coated with human C1s mutant M17: N380H, OD450nm
T2 construct: The entry is the mutant itself
T2 sequence: T1 sequence with I277M, N380H
Protocol: as §1, §2

[3] = target: T3, human C1s mutant M20 (A320S) (human, UniProt P09871 16-688); assay: ELISA, plate coated with human C1s mutant M20: A320S, OD450nm
T3 construct: The entry is the mutant itself
T3 sequence: T1 sequence with I277M, A319S
Protocol: as §1, §2

EC50 [1]: 7 ng/mL
EC50 [2]: 5 ng/mL
EC50 [3]: 3 ng/mL
B1: Anti-C1s antibody hz2-8 (H1L2 G80A) (antibody, V domains shown)
VH: QVQLVQSGAEVKKPGASVKVSCKASGFNIKEYYMHWVRQAPEQGLEWMGWIDPENADTIYAQKFQGRVTITADTSTNTAYMELSSLRSEDTAVYYCARSRLFFAYWGQGTLVTVSS
VL: DIQMTQSPKSLSASVGDRVTITCRASQDVRTALDWYQQKPGQSPKLLIYSASYRYSGVPSRFSGSGSGTDFTLTISSLQPEDFATYYCQQQYTTPYTFGQGTKLEIKR
notes: Humanized variant with G80A in HC CDR2 (already in the entry), human IgG1 / kappa

EC50 [1]: 5 ng/mL
EC50 [2]: 8 ng/mL
EC50 [3]: 5 ng/mL
B2: Anti-C1s antibody hz2-8 (H1L2 G80A/T82A) (antibody, V domains shown)
VH: B1 VH with T58A
VL: B1 VL
notes: Humanized variant with G80A and T82A in HC CDR2 (already in the entry), human IgG1 / kappa

EC50 [1]: 9 ng/mL
EC50 [2]: 4 ng/mL
EC50 [3]: 4 ng/mL
B3: Anti-C1s antibody hz2-7(H1L2) (antibody, V domains shown)
VH: EVQLLESGGGLVQPGGSLRLSCAASGFTFSNYFMNWVRQAPGKGLEWVSEIRLKFTNYATHYADSVKGRFTISRDDSKSTLYLQMNSLRAEDTAVYYCTRDYGSRNGYFDYWGQGTLVTVSS
VL: DIVMTQTPLSLPVTPGEPASISCRSSKSLLHSNGNTFLYWFLQKPGQSPQLLIYRMSNLASGVPDRFSGSGSGTDFTLKISRVEAEDVGVYYCMQHLEYPYTFGGGTKLEIKR
notes: Humanized, human IgG1 / kappa; also called hz2-7(1L2)
